From US20210380703A1 (RIGEL PHARMACEUTICALS, published 2021)

Tests used:
[1] = molecular target: T1, Human ACVR2A (human, UniProt P27037 20-135, limits assumed); assay: ELISA
T1 construct: also called activin receptor, type II A
Outline: (§1)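 Monoclonal antibodies were first applied to human or mouse ACVR2A, alongside biotinylated goat anti-human kappa light chain (positive control) and human Fc (negative control); binding was then determined by ELISA.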

[2] = molecular target: Mouse ACVR2A (mouse, UniProt P27038 20-135, limits assumed); assay: ELISA
Outline: as §1

[3] = molecular target: T2, Goat anti-Human Kappa; assay: ELISA, positive control
T2 construct: Positive control of the ELISA; also called biotinylated goat anti-human kappa light chain
Outline: as §1
Also: test concentration or dose not given here.

T1 sequence (P27037 20-135 limits assumed): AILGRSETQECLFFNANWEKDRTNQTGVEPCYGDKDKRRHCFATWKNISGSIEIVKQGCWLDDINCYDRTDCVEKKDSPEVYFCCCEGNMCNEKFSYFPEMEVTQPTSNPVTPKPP
Chain of Mouse ACVR2A (P27038 20-135 limits assumed): as the sequence (P27037 20-135 limits assumed) above, with K20R, V73I counted along it

Row | Binder | optical density [1] [OD] | optical density [2] [OD] | optical density [3] [OD]
1 | 371_G05 (antibody, V domains shown) VH: EVQLLESGGGLVQPGGSLRLSCAASGFTFDSYSMNWVRQAPGKGLEWVSGINYNSGYTGYADSVKGRFTISRDNSKNTLYLQMNSLRAEDTAVYYCARSANWHDTALDYWGQGTLVTVSS VL: DIQMTQSPSSLSASVGDRVTITCRASQSISSYLNWYQQKPGKAPKLLIYAVTSRASGVPSRFSGSGSGTDFTLTISSLQPEDFATYYCQQSYSSPLTFGGGTKVEIK | 1.25 | 1.33 | 3.08
2 | 372_B04 (antibody, V domains shown) VH: EVQLLESGGGLVQPGGSLRLSCAASGFTFDSYGMNWVRQAPGKGLEWVANINYNGGYTSYADSVKGRFTISRDNSKNTLYLQMNSLRAEDTAVYYCARSANWHDTALDYWGQGTLVTVSS VL: DIQMTQSPSSLSASVGDRVTITCRASQSILSYVNWYQQKPGKAPKLVIYAATSLASGVPSRFSGSGSGTDFTLTISSLQPEDFATYYCQQSYDSPLTFGGGTKVEIK | 2.61 | 3.12 | 3.59
3 | 372_C07 (antibody, V domains shown) VH: EVQLLESGGGLVQPGGSLRLSCAASGFTFSDYSMNWVRQAPGKGLEWVSNINYNSGYTSYADSVKGRFTISRDNSKNTLYLQMNSLRAEDTAVYYCARSANWHDTHLDYWGQGTLVTVSS VL: DIQMTQSPSSLSASVGDRVTITCRASQSILSYLNWYQQKPGKAPKLVIYAATSRHSGVPSRFSGSGSGTDFTLTISSLQPEDFATYYCQQSDNTPLTFGGGTKVEIK | 2.41 | 2.64 | 3.46
4 | 372_F08 (antibody, V domains shown) VH: EVQLLESGGGLVQPGGSLRLSCAASGFTFSDYSMNWVRQAPGKGLEWVSNINYNSGYTGYADSVKGRFTISRDNSKNTLYLQMNSLRAEDTAVYYCARSANWHDTALDYWGQGTLVTVSS VL: DIQMTQSPSSLSASVGDRVTITCRASQSILTYVNWYQQKPGKAPKLVIYAATSRASGVPSRFSGSGSGTDFTLTISSLQPEDFATYYCQQSYDTPLTFGGGTKVEIK | 3.38 | 3.22 | 3.44
5 | 372_F09 (antibody, V domains shown) VH: EVQLLESGGGLVQPGGSLRLSCAASGFTFDSYSMNWVRQAPGKGLEWVANINYNSGYKGYADSVKGRFTISRDNSKNTLYLQMNSLRAEDTAVYYCARSANWHDTALDYWGQGTLVTVSS VL: DIQMTQSPSSLSASVGDRVTITCRASQSILTYLNWYQQKPGKAPKLVIYAATSLASGVPSRFSGSGSGTDFTLTISSLQPEDFATYYCQQSYSSPLTFGGGTKVEIK | 3.17 | 3.04 | 3.47
6 | 372_A04 (antibody, V domains shown) VH: EVQLLESGGGLVQPGGSLRLSCAASGFTFDSYSMNWVRQAPGKGLEWVSGINYNSGYTSYADSVKGRFTISRDNSKNTLYLQMNSLRAEDTAVYYCARSANWHDTALDYWGQGTLVTVSS VL: DIQMTQSPSSLSASVGDRVTITCRASQSILTYLNWYQQKPGKAPKLVIYAATSRASGVPSRFSGSGSGTDFTLTISSLQPEDFATYYCQQSYETPLTFGGGTKVEIK | 3.2 | 3.4 | 3.64
7 | 373_B04 (antibody, V domains shown) VH: EVQLLESGGGLVQPGGSLRLSCAASGFTFSSYGMNWVRQAPGKGLEWVAGINYNSGYKGYADSVKGRFTISRDNSKNTLYLQMNSLRAEDTAVYYCARSANWHDTALDYWGQGTLVTVSS VL: DIQMTQSPSSLSASVGDRVTITCRASQSILTYLNWYQQKPGKAPKLLIYAATSRASGVPSRFSGSGSGTDFTLTISSLQPEDFATYYCQQSYETPLTFGGGTKVEIK | 3.6 | 3.62 | 3.25
8 | 371_G10 (antibody, V domains shown) VH: EVQLLESGGGLVQPGGSLRLSCAASGFTFSSYSMNWVRQAPGKGLEWVSGINYNGGYKSYADSVKGRFTISRDNSKNTLYLQMNSLRAEDTAVYYCARSANWHDTALDYWGQGTLVTVSS VL: DIQMTQSPSSLSASVGDRVTITCRASQSISSYVNWYQQKPGKAPKLLIYAATSRHSGVPSRFSGSGSGTDFTLTISSLQPEDFATYYCQQSDDSPLTFGGGTKVEIK | 1.65 | 1.92 | 3.41
9 | 373_B06 (antibody, V domains shown) VH: EVQLLESGGGLVQPGGSLRLSCAASGFTFSDYSMNWVRQAPGKGLEWVAGINYNGGYTGYADSVKGRFTISRDNSKNTLYLQMNSLRAEDTAVYYCARSANWHDTALDYWGQGTLVTVSS VL: DIQMTQSPSSLSASVGDRVTITCRASQSILTYVNWYQQKPGKAPKLVIYAATSRHSGVPSRFSGSGSGTDFTLTISSLQPEDFATYYCQQSYESPLTFGGGTKVEIK | 3.44 | 3.43 | 3.24
10 | 373_B10 (antibody, V domains shown) VH: EVQLLESGGGLVQPGGSLRLSCAASGFTFDSYGMNWVRQAPGKGLEWVSNINYNGGYTSYADSVKGRFTISRDNSKNTLYLQMNSLRAEDTAVYYCARSANWHDTALDYWGQGTLVTVSS VL: DIQMTQSPSSLSASVGDRVTITCRASQSILSYLNWYQQKPGKAPKLLIYAATSRASGVPSRFSGSGSGTDFTLTISSLQPEDFATYYCQQSYDLPLTFGGGTKVEIK | 3.65 | 3.6 | 3.15
11 | 372_F06 (antibody, V domains shown) VH: EVQLLESGGGLVQPGGSLRLSCAASGFTFSDYGMNWVRQAPGKGLEWVAGINYNGGYKSYADSVKGRFTISRDNSKNTLYLQMNSLRAEDTAVYYCARSANWHDTALDYWGQGTLVTVSS VL: DIQMTQSPSSLSASVGDRVTITCRASQSILSYVNWYQQKPGKAPKLLIYAATSLASGVPSRFSGSGSGTDFTLTISSLQPEDFATYYCQQSYETPLTFGGGTKVEIK | 2.26 | 2.54 | 3.48

Results, then the binder that gave them:

Row | optical density [1] [OD] | optical density [2] [OD] | optical density [3] [OD] | Binder
12 | 2.2 | 2.55 | 3.43 | 371_F08 (antibody, V domains shown) VH: EVQLLESGGGLVQPGGSLRLSCAASGFTFDDYSMNWVRQAPGKGLEWVSGINYNGGYTGYADSVKGRFTISRDNSKNTLYLQMNSLRAEDTAVYYCARSANWHDTALDYWGQGTLVTVSS VL: DIQMTQSPSSLSASVGDRVTITCRASQSIVSYVNWYQQKPGKAPKLVIYAATSRHSGVPSRFSGSGSGTDFTLTISSLQPEDFATYYCQQSYESPLTFGGGTKVEIK
13 | 3.3 | 3.31 | 3.11 | 373_A08 (antibody, V domains shown) VH: EVQLLESGGGLVQPGGSLRLSCAASGFTFDSYGMNWVRQAPGKGLEWVSNINYNGGYTGYADSVKGRFTISRDNSKNTLYLQMNSLRAEDTAVYYCARSANWHDTALDYWGQGTLVTVSS VL: DIQMTQSPSSLSASVGDRVTITCRASQSIVSYVNWYQQKPGKAPKLLIYAATSLASGVPSRFSGSGSGTDFTLTISSLQPEDFATYYCQQSYSLPLTFGGGTKVEIK
14 | 3.54 | 3.55 | 3.1 | 373_A10 (antibody, V domains shown) VH: EVQLLESGGGLVQPGGSLRLSCAASGFTFSSYGMNWVRQAPGKGLEWVSGINYNSGYTSYADSVKGRFTISRDNSKNTLYLQMNSLRAEDTAVYYCARSANWHDTALDYWGQGTLVTVSS VL: DIQMTQSPSSLSASVGDRVTITCRASQSILSYLNWYQQKPGKAPKLVIYAATSRASGVPSRFSGSGSGTDFTLTISSLQPEDFATYYCQQSYDLPLTFGGGTKVEIK
15 | 3.12 | 3.08 | 3.27 | 373_B12 (antibody, V domains shown) VH: EVQLLESGGGLVQPGGSLRLSCAASGFTFDSYGMNWVRQAPGKGLEWVSSINYNSGYTSYADSVKGRFTISRDNSKNTLYLQMNSLRAEDTAVYYCARSANWHDTALDYWGQGTLVTVSS VL: DIQMTQSPSSLSASVGDRVTITCRASQSIVSYVNWYQQKPGKAPKLLIYAATSRASGVPSRFSGSGSGTDFTLTISSLQPEDFATYYCQQSYDSPLTFGGGTKVEIK
16 | 2.8 | 2.97 | 2.96 | 373_A02 (antibody, V domains shown) VH: EVQLLESGGGLVQPGGSLRLSCAASGFTFDSYGMNWVRQAPGKGLEWVSGINYNGGYKGYADSVKGRFTISRDNSKNTLYLQMNSLRAEDTAVYYCARSANWHDTALDYWGQGTLVTVSS VL: DIQMTQSPSSLSASVGDRVTITCRASQSILSYVNWYQQKPGKAPKLVIYATTSLASGVPSRFSGSGSGTDFTLTISSLQPEDFATYYCQQSYNTPLTFGGGTKVEIK
17 | 2.66 | 2.91 | 3.58 | 372_D02 (antibody, V domains shown) VH: EVQLLESGGGLVQPGGSLRLSCAASGFTFSSYGMHWVRQAPGKGLEWVAGINYNGGYTGYADSVKGRFTISRDNSKNTLYLQMNSLRAEDTAVYYCARSANWHDTALDYWGQGTLVTVSS VL: DIQMTQSPSSLSASVGDRVTITCRASQSILTYLNWYQQKPGKAPKLVIYAATSRASGVPSRFSGSGSGTDFTLTISSLQPEDFATYYCQQSYDNPLTFGGGTKVEIK
18 | 3.19 | 3.31 | 3.6 | 372_F03 (antibody, V domains shown) VH: EVQLLESGGGLVQPGGSLRLSCAASGFTFSSYGMNWVRQAPGKGLEWVAGINYNGGYTSYADSVKGRFTISRDNSKNTLYLQMNSLRAEDTAVYYCARSANWHDTALDYWGQGTLVTVSS VL: DIQMTQSPSSLSASVGDRVTITCRASQSILSYLNWYQQKPGKAPKLVIYAATSRASGVPSRFSGSGSGTDFTLTISSLQPEDFATYYCQQSYDTPLTFGGGTKVEIK
19 | 2.96 | 3.23 | 3.66 | 371_H09 (antibody, V domains shown) VH: EVQLLESGGGLVQPGGSLRLSCAASGFTFDSYSMNWVRQAPGKGLEWVSNINYNGGYTSYADSVKGRFTISRDNSKNTLYLQMNSLRAEDTAVYYCARSANWHDTALDYWGQGTLVTVSS VL: DIQMTQSPSSLSASVGDRVTITCRASQSILTYVNWYQQKPGKAPKLVIYAATSLASGVPSRFSGSGSGTDFTLTISSLQPEDFATYYCQQSYDSPLTFGGGTKVEIK
